Numbering of substitutions follows the chain as printed. In names and notes the source's numbering stands. Read-outs that look alike come from different tables or passages of the source.
Tests used:
[1] = molecular target: T1, FcgRIIa type R extracellular domain with C-terminal His tag (human, UniProt P12318 34-217); assay: SPR (Biacore); KD of IL6R-B3/IL6R-L for this FcgR divided by KD of the sample
T1 construct: extracellular domain; also called FcgRIIaR; FcgRIIa R; not shown: His tag at the C terminus
T1 sequence (looked up): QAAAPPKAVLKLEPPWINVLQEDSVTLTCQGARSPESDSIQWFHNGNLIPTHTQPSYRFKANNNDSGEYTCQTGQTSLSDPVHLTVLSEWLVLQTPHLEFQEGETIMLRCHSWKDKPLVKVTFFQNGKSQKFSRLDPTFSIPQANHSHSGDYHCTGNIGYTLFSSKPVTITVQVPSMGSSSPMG
Experimental: (§1) Analysis of interaction between obj ective antibody and the FcγR was carried out using Biacore T100 (GE Healthcare), Biacore T200, Biacore A100, and Biacore 4000. HBS-EP+ (GE Healthcare) was used as the running buffer, and the measurement temperature was set to 25° C. Chips produced by immobilizing the antigen peptide by the amine coupling method to a Series S sensor Chip CM5 (GE Healthcare), chips produced by allowing preliminarily biotinylated antigen peptides to interact with and immobilize onto a Series S Sensor Chip SA (certified) (GE Healthcare), chips produced by immobilizing Protein L (ACTIGEN, BioVision) to Series S Sencor Chip CM5 (GE Healthcare), or chips produced by immobilizing Protein A/G (Thermo Scientific) to Series S Sencor Chip CM5 (GE Healthcare) were used. Antibodies of interest were captured onto these chips, and allowed to interact to each FcγR diluted with running buffer. To regenerate and repeatedly use the chip, the antibodies captured onto the chip were washed off by reacting 10 mM glycine-HCl, pH 1.5.

[2] = molecular target: T2, FcgRIIb extracellular domain with C-terminal His tag (human, UniProt P31994 43-217); assay: as above
T2 construct: extracellular domain; Expressed in FreeStyle293 cells; also called FcγRIIb; 2b; not shown: His tag at the C terminus
T2 sequence (looked up): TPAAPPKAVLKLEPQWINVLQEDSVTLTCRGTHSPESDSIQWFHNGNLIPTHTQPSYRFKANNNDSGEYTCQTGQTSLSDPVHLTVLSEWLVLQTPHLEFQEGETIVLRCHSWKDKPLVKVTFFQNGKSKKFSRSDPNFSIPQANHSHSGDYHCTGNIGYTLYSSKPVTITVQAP
Experimental: as §1

[3] = molecular target: T3, FcgRIIa type H extracellular domain with C-terminal His tag (human, UniProt P12318 34-217); assay: as above
T3 construct: extracellular domain; also called FcgRIIaH; FcgRIIa H; not shown: His tag at the C terminus
T3 sequence (looked up): T1 sequence (looked up) with R134H
Experimental: as §1

[4] = molecular target: T4, FcgRIa extracellular domain with C-terminal His tag (human, UniProt P12314 16-292); assay: SPR (Biacore), antibody captured on chip, soluble FcgR as analyte, kinetic 1:1 fit
T4 construct: extracellular domain; Expressed in FreeStyle293 cells; also called FcγRIa; not shown: His tag at the C terminus
T4 sequence (P12314 16-292): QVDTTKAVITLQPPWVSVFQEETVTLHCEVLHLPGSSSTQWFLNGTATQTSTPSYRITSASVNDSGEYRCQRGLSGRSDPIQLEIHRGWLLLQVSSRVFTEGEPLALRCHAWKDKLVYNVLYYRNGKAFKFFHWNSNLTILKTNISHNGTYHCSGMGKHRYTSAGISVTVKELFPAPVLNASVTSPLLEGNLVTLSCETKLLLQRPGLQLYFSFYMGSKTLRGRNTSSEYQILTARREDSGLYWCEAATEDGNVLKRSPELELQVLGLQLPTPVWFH

[5] = molecular target: T1, FcgRIIa type R extracellular domain …; assay: as above
[6] = molecular target: T2, FcgRIIb extracellular domain with …; assay: as above
[7] = molecular target: T3, FcgRIIa type H extracellular domain …; assay: as above
[8] = molecular target: T4, FcgRIa extracellular domain with …; assay: as above; remark: listed apart in the source
Experimental: (§2) The variants were assessed for the binding activity to FcgR Ia, FcgR IIaR, FcgR IIaH, and FcgRIIb according to the method described in Reference Example 8.
as §1

[9] = molecular target: T1, FcgRIIa type R extracellular domain …; assay: as above; remark: listed apart in the source
Experimental: as §2, §1

[10] = molecular target: T2, FcgRIIb extracellular domain with …; assay: as above; remark: listed apart in the source
Experimental: as §2, §1

[11] = molecular target: T3, FcgRIIa type H extracellular domain …; assay: as above; remark: listed apart in the source
Experimental: as §2, §1

[12] = molecular target: T5, FcgRIIIa type V extracellular domain with C-terminal His tag (human, UniProt P08637 17-208); assay: SPR (Biacore), antibody captured on chip, soluble FcgR as analyte; too weak for kinetics, KD from steady-state 1:1 equation
T5 construct: extracellular domain; also called FcgRIIIaV; FcgRIIIa V; not shown: His tag at the C terminus
T5 sequence (P08637 17-208 F176V): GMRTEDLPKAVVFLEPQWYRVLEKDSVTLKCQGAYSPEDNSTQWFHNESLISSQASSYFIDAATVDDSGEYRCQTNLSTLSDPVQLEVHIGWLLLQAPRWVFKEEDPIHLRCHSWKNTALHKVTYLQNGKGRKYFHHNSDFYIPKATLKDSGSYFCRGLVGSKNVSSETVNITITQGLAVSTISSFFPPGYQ
Experimental: KD can be calculated by substituting the values of Rmax, RI, and C into this equation. The values of RI and C can be determined from the sensorgram of the measurement results and measurement conditions. Rmax was calculated according to the following method.

[13] = molecular target: T2, FcgRIIb extracellular domain with …; assay: SPR (Biacore); KD of the sample for FcgRIIaR divided by its KD for FcgRIIb (selectivity for FcgRIIb)
Experimental: as §1

[14] = molecular target: T5, FcgRIIIa type V extracellular domain …; assay: SPR (Biacore), antibody captured on chip, soluble FcgR as analyte, kinetic 1:1 fit
[15] = molecular target: T1, FcgRIIa type R extracellular domain …; assay: SPR (Biacore); KD of IL6R-B3/IL6R-L for this FcgR divided by KD of the sample; remark: listed apart in the source
Experimental: as §1

[16] = molecular target: T2, FcgRIIb extracellular domain with …; assay: as above; remark: listed apart in the source
Experimental: as §1

[17] = molecular target: T3, FcgRIIa type H extracellular domain …; assay: as above; remark: listed apart in the source
Experimental: as §1

B1: IL6R-BP253/IL6R-L (antibody, human IgG1, kappa)
heavy: QVQLQESGPGLVKPSETLSLTCAVSGHSISHDHAWSWVRQPPGEGLEWIGFISYSGITNYNPSLQGRVTISRDNSKNTLYLQMNSLRAEDTAVYYCARSLARTTAMDYWGEGTLVTVSSASTKGPSVFPLAPSSKSTSGGTAALGCLVKDYFPEPVTVSWNSGALTSGVHTFPAVLQSSGLYSLSSVVTVPSSSLGTQTYICNVNHKPSNTKVDKKVEPKSCDKTHTCPPCPAPELLGGPSVFLFPPKPKDTLMISRTPEVTCVVVDVEHEDPEVKFNWYVDGVEVHNAKTKPREEQYNSTYRVVSVLTVLHQDWLNGKEYKCKVSNKAFPAPIEKTISKAKGQPREPQVYTLPPSRDELTKNQVSLTCLVKGFYPSDIAVEWESNGQPENNYKTTPPVLDSDGSFFLYSKLTVDKSRWQQGNVFSCSVMHEALHNHYTQESLSLSP
light: not shown
notes: Homodimer; IL6R-BP253 is IL6R-B3 with S267E and L328F
For B1, the “Relative KD” value [1] was 480 ratio, the “Relative KD” value [2] was 349 ratio and the “Relative KD” value [3] was 0.9 ratio. The Kd [4] was 0.05 nM, the Kd [5] was 2.3 nM and the Kd [6] was 8.9 nM. For the same binder, the Kd [7] was 860 nM, the Kd [8] was 0.05 nM and the Kd [9] was 2.3 nM. It also gave a Kd [10] of 8.9 nM, a Kd [11] of 860 nM and a Kd [12] of 7100 nM. For the same binder, the “KD(IIaR)/KD(IIb)” value [13] was 0.3 ratio, the Kd [14] was 400 nM and the “Relative KD” value [15] was 480 ratio. The “Relative KD” value [16] was 349 ratio and the “Relative KD” value [17] was 0.9 ratio.

Source: patent publication US20180155451A1 (published 2018)
